Laboratory results from WO2015037992A1 (dated 2015).

Target: T1, HPeV1 VP1 (recombinant capsid protein, his-tag) (human parechovirus 1 (Harris), UniProt Q66578 543-773)
T1 sequence: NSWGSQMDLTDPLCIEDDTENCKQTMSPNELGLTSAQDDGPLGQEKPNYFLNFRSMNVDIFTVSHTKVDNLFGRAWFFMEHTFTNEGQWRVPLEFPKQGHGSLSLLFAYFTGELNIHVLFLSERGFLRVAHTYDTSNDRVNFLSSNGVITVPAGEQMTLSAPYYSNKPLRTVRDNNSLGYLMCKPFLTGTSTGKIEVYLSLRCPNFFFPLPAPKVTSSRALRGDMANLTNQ

B1: AM18 (antibody, V domains shown)
VH: QVQFMQSGAEVKKPGASVKVSCKASGDTFSNFAVHWVRQAPGQRPEWMGWVNAGDSNLKYSQRFQGRLIITRDTFASTVYLDLSSLTSKDTAVYYCAGGNFGGNSATFDYWGQGTLVTVSS
VL: EIVLTQSPGTLSLSPGERATLSCRASQSVSDNYLAWYQQKPGQAPRLLIYGASHKSTGIPDRFSGSGSGTDFTLTISRLEPEDFAVYYCQQYGGSPLTFGGGTKVEIKR
B1 gave a Kd of 11.5 pM, a koff of 2.3e-06 s⁻¹ and a kon of 208000 M⁻¹ s⁻¹.
